Measurements reported in patent US5976877.

Target: HLA class II molecules on the Burkitt lymphoma line Raji

rosette formation / adhesion of Raji cells to transfected COS-7 cells: 23%
B1: LAG-3 protein (Lymphocyte Activation Gene-3), mature membrane protein of 470 amino acids (receptor)
chain: VPVVWAQEGAPAQLPCSPTIPLQDLSLLRRAGVTWQHQPDSGPPAAAPGHPLAPGPHPAAPSSWGPRPRRYTVLSVGPGGLRSGRLPLQPRVQLDERGRQRGDFSLWLRPARRADAGEYRAAVHLRDRALSCRLRLRLGQASMTASPPGSLRASDWVILNCSFSRPDRPASVHWFRNRGQGRVPVRESPHHHLAESFLFLPQVSPMDSGPWGCILTYRDGFNVSIMYNLTVLGLEPPTPLTVYAGAGSRVGLPCRLPAGVGTRSFLTAKWTPPGGGPDLLVTGDNGDFTLRLEDVSQAQAGTYTCHIHLQEQQLNATVTLAIITVTPKSFGSPGSLGKLLCEVTPVSGQERFVWSSLDTRSQRSFSGPWLEAQEAQLLSQPWQCQLYQGERLLGAAVYFTELSSPGAQRSGRAPGALPAGHLLLFLTLGVLSLLLLVTGAFGFHLWRRQWRPRRFSALEQGIHPRRLRAR
